# US20260042853A1 (REGENTS OF THE UNIVERSITY OF COLORADO A BODY CORPORATE, published 2026)
# B1: human CD25 and human CCR4 together on human CD25+CCR4+ T-cell lymphoma cell line Hut 102/6TG (other)
# chain 1: ELCDDDPPEIPHATFKAMAYKEGTMLNCECKRGFRRIKSGSLYMLCTGNSSHSSWDNQCQCTSSATRNTTKQVTPQPEEQKERKTTEMQSPMQPVDQASLPGHCREPPPWENEATERIYHFVVGQMVYYQCVQGYRALHRGPAESVCKMTHGKTRWTQPQLICTGEMETSQFPGEEKPQASPEGRPESETSCLVTTTDFQIQTEMAATMETSIFTTEYQVAVAGCVFLLISVLLLSGLTWQRRQRKSRRTI
# chain 2: MNPTDIADTTLDESIYSNYYLYESIPKPCTKEGIKAFGELFLPPLYSLVFVFGLLGNSVVVLVLFKYKRLRSMTDVYLLNLAISDLLFVFSLPFWGYYAADQWVFGLGLCKMISWMYLVGFYSGIFFVMLMSIDRYLAIVHAVFSLRARTLTYGVITSLATWSVAVFASLPGFLFSTCYTERNHTYCKTKYSLNSTTWKVLSSLEINILGLVIPLGIMLFCYSMIIRTLQHCKNEKKNKAVKMIFAVVVLFLGFWTPYNIVLFLETLVELEVLQDCTFERYLDYAIQATETLAFVHCCLNPIIYFFLGEKFRKYILQLFKTCRGLFVLCQYCGLLQIYSADTPSSSYTQSTMDHDLHDAL
# notes: whole, on cells; Not a complex: two separate receptors on the same cell; also called human CD25+CCR4+ Hut102/6TG; CD25+CCR4+ CTCL Hut102/6TG
# Target: T1, CCR4-IL2 bispecific immunotoxin
# T1 construct: also called CCR4-IL2 IT; CCR4-IL2 immunotoxin
# Assay: flow cytometry, MFI against concentration of biotinylated immunotoxin on CD25+CCR4+ Hut102/6TG cells, nonlinear least squares fit
binder,measurement,value
B1,Kd,19.7 nM
